Common to all, as to experiment: filter binding
The target of data set [1] is T1, Cbf5;Nop10;Gar1;Nhp2 (Saccharomyces cerevisiae;Saccharomyces cerevisiae;Saccharomyces cerevisiae;Saccharomyces cerevisiae) (UniProt P33322+Q6Q547+P28007+P32495).
T1 sequence 1: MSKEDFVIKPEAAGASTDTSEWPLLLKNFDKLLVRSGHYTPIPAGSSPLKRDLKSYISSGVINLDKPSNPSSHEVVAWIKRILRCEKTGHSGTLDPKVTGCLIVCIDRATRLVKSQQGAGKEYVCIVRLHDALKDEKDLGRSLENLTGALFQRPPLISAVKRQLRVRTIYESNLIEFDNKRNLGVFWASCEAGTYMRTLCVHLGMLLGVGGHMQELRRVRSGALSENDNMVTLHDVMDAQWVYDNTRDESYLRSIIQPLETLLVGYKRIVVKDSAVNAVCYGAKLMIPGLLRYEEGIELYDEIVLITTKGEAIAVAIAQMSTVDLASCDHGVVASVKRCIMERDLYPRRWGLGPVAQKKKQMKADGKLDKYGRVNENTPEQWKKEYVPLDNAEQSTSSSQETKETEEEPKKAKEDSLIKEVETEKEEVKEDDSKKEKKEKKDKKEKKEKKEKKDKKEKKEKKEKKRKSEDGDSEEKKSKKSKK
T1 sequence 2: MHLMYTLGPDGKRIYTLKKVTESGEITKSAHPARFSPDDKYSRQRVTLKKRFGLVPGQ
T1 sequence 3: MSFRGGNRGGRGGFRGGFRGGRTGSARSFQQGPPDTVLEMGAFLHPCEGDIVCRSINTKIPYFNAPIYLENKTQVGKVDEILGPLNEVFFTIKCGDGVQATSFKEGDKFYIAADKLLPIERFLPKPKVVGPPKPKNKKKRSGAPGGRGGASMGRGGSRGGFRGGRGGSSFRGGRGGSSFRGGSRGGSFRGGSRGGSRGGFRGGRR
T1 sequence 4: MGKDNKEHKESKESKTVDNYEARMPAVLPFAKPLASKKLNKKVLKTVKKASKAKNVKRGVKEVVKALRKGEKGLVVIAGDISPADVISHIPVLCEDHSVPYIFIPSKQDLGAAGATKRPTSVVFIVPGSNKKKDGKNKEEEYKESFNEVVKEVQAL
To be noted: 20 mM HEPES-KOH pH 7.4, 150 mM NaCl, 1.5 mM MgCl2, 10% glycerol, 30°C, 10 min; nitrocellulose filtration.

The target of the next data set is T2, Utp23 (Saccharomyces cerevisiae?) (UniProt Q12339).
T2 sequence: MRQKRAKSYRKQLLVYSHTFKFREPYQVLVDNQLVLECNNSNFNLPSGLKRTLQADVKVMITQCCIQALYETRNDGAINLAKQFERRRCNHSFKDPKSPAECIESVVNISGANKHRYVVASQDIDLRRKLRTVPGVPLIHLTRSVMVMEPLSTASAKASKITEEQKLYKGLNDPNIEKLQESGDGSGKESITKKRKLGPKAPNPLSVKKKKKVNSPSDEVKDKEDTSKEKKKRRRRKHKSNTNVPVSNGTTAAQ
To be noted: 20 mM HEPES-KOH pH 7.4, 150 mM NaCl, 1.5 mM MgCl2, 10% glycerol, 30°C, 10 min; nitrocellulose filtration.

Data set [2] has as its target T3, Cbf5;Nop10;Gar1 (Saccharomyces cerevisiae;Saccharomyces cerevisiae;Saccharomyces cerevisiae) (UniProt P33322+Q6Q547+P28007).
T3 sequence 1: T1 sequence 1
T3 sequence 2: T1 sequence 2
T3 sequence 3: T1 sequence 3
To be noted: no Nhp2; single replicate; 20 mM HEPES-KOH pH 7.4, 150 mM NaCl, 1.5 mM MgCl2, 10% glycerol, 30°C, 10 min; nitrocellulose filtration.

Data set [3] deals with T4, Nhp2 (Saccharomyces cerevisiae) (UniProt P32495).
T4 sequence: T1 sequence 4
Particulars: Nhp2 alone, 20 mM HEPES-KOH pH 7.4, 150 mM NaCl, 1.5 mM MgCl2, 10% glycerol, 30°C, 10 min, nitrocellulose filtration.

In general, Kd refers to the free concentration of one partner at which half of the binding sites on the other are occupied at equilibrium, for simple one-to-one binding.

Values joined by “and” are separate entries in the source; they are usually repeats but may differ in a detail not shown here. Equal values may be shown once.

In data set [1], “GGGCCGACUAGGGAUCGGGUGGUGUUUUUUUAAUGACCCACUCGGCACCUUACGAGAAAUCAAAGUCUUUGGGU [H25/26]” registered a Kd of 92 nM.

“GGGUUAAUAGGGACGGUCGGGGGCAUCAGUAUUCAAUUGUCAGAGGUGAAAUUCUUGGAUUUAUUGAAGACUAACUACUGCGAAAGCAUUUGCCAAGGACGUUUUC [H22/23]”: the dissociation constant (Kd) in data set [1] came out at 84 nM; with Utp23 it was 8.8 nM.

Take “GGGAUUUUUUCGUGUACUGGAUUUCCAACGGGGCCUUUCCUUCUGGCUAACCUUGAGUCCUUGUGGCUCUUGGCGAACCAGGA [C2-ES6H1]”: the Kd in data set [1] is 405 nM and 560 nM.

On to snR30 full-length, for which the equilibrium dissociation constant (Kd) stood at 1.2 nM in data set [2]; 0.9 nM in data set [1]; 116 nM in data set [3] (replicate 1); 212 nM in data set [3] (replicate 2); 17.5 nM with Utp23.

As to mitochondrial tRNAMet, the figures for the equilibrium dissociation constant (Kd) (in data set [1]; with Utp23) were 746 nM and less than 2 nM, respectively.

With snR81, in the data set with Utp23, the Kd turned out to be 4.7 nM.

(Values after PMC9176245.)
